Consider one substance from patent US9580487B2, “Method of treating stomach or bowel-related disorders by administering glucagon-like-peptide-2 (GLP-2) analogues” (Zealand Pharma A/S, priority 2005, dated 2017).

Data set [1] in a line: Tentative identification of major degradation products in stress test samples by LC-MS. Type of data set: physicochemical. The conditions noted are these: 3 days at 40° C. in 0.5% H2O2. The procedure: Analytical LC-MS analyses were performed on an Agilent Technologies 1100 HPLC instrument consisting of an on-line degasser, quaternary gradient pump, an auto sampler, a column oven, an UV detector. The HPLC instrument was interfaced with a Micromass LCT (ESI-TOF) mass spectrometer under control of Masslynx 3.5 software, from MicroMass, UK.
Major degradation products in the stress test samples were tentatively identified by the LC-MS method. Any isomers to the parent compounds and minor degradation products were not observed by this analytical LC-MS method.

Data set [2] in a line: Chemical stability testing: incubation in HCl, NaOH, H2O2 or NH4HCO3 at 40° C., remaining purity by RP-HPLC. Type of data set: physicochemical. The conditions noted are these: 40° C., 2 mg/ml, relative to the purity at T=0. The method, then:
The GLP-2 analogues were dissolved in purified water and subsequently diluted in solutions containing HCl, NaOH, H2O2 or NH4HCO3. The solutions were incubated at 40° C. to produce hydrolysis, deamidation and oxidation products. The samples were analyzed by RP-HPLC and the percentage of remaining intact compound was determined as a measure for the relative stability. The major degradation products were tentatively identified by LC-MS.
The GLP-2 analogues tested and the reference Gly^2-GLP-2, ZP1559 (SEQ ID NO:54), were dissolved in water and subsequently diluted into solutions containing HCl, NaOH, H2O2 or NH4HCO3. The samples were incubated at 40° C. to generate hydrolysis, deamidation and oxidation products, respectively. The compounds were analysed by RP-HPLC for purity of the original main peak and by LC-MS for confirmation of the identity by mass of the main peak and major degradation products.
The GLP-2 analogues were first dissolved in MQW to a concentration of 4 mg/ml and then further diluted in the stress solutions at a 1:1 ratio (e.g. 125 μl plus 125 μl). The final concentrations were 2 mg/ml of the GLP-2 analogues for stress conditions with 0.1 M HCl, 0.01M NaOH, 0.1 M NH4HCO3 and 0.5% H2O2, respectively.
The solutions were incubated at 40° C. in the dark and then diluted in Eluent A to a concentration of 0.5 mg/ml (addition of 750 μl) prior to analyses by RP-HPLC and by LC-MS.
The RP-HPLC analyses were performed on an Agilent Series 1100 HPLC system under control of the ChemStation (Revision A.08.03 [847]) software from Agilent Technologies, Inc. The raw data and the results of the peak integration were deposited on the ChemStore C/S server by the use of Agilent Technologies Revision B01.03 software.
The results are shown in Table 9 as the compound purity measured by RP-HPLC after incubation under stress conditions. This purity is a measure for the remaining intact compound after incubation in stress solutions, relative to the purity measured a T=0.

Data set [3] concerns male C57BL mice. Kind of data set: Dose-response effect on intestinal growth (SI mass, SI-Colon Sensitivity Index, colon and stomach mass). Type of data set: in vivo. The conditions noted are these: 5-405 nmol/kg s.c. b.i.d. for three days, vs vehicle. The procedure: Values are means±SEM. *: P<0.05 relative to the equimolar dose of [Gly2]GLP-2 (SEQ ID NO:54).
FIG. 2 is a set of graphs showing full dose-response data of four small intestine selective compounds (compound nos. 1846 (SEQ ID NO:34), 1855 (SEQ ID NO:43), 1848 (SEQ ID NO:36), 1858 (SEQ ID NO:46)) on the Small Intestine (SI)-to-Colon Sensitivity Index mice relative to the non-selective reference compound [Gly2]GLP-2 (SEQ ID NO:54). Compounds were administered by subcutaneous injection b.i.d. for three days in C57BL mice at the following doses: 0 (vehicle), 5, 15, 45, 135, 405 nmol/kg (n=6/dose group). Responses at each dose level were compared with responses obtained at the same dose level in pair-treated mice treated with the non-selective reference compound [Gly2]GLP-2 (SEQ ID NO:54). The SI-Colon Sensitivity Index was calculated as SI-mass relative to colon mass and the Sensitivity Index at each dose level was normalized to the response observed with the non-selective reference compound [Gly2]GLP-2 (SEQ ID NO:54). […] Values are means±SEM. *: P<0.05 relative to the equimolar dose of [Gly2]GLP-2.
FIG. 4 is a set of graphs showing full dose-response data of three small intestine selective compounds (compound nos. 1857 (SEQ ID NO:45), 1820 (SEQ ID NO:10), and 1849 (SEQ ID NO:37)) on the Small Intestine (SI)-to-Colon Sensitivity Index mice relative to the non-selective reference compound [Gly2]GLP-2 (SEQ ID NO:54). Compounds were administered by subcutaneous injection b.i.d. for three days in C57BL mice at the following doses: 0 (vehicle), 5, 15, 45, 135, 405 nmol/kg (n=6/dose group). Responses at each dose level were compared with responses obtained at the same dose level in pair-treated mice treated with the non-selective reference compound [Gly2]GLP-2 (SEQ ID NO:54). The SI-Colon Sensitivity Index was calculated as SI-mass relative to colon mass and the Sensitivity Index at each dose level was normalized to the response observed with the non-selective reference compound [Gly2]GLP-2 (SEQ ID NO:54). […] Values are means±SEM. *: P<0.05 relative to the equimolar dose of [Gly2]GLP-2 (SEQ ID NO:54).
Compounds were administered by subcutaneous injection b.i.d. for three days in C57BL mice at the following doses: 0 (vehicle), 5, 15, 45, 135, 405 nmol/kg (n=6/dose group). […] Values are means±SEM. *: P<0.05 relative to the vehicle.
The dose-response effect of 1820 (SEQ ID NO:10), 1855 (SEQ ID NO:43), ZP1846 (SEQ ID NO:34), 1858 (SEQ ID NO:46), 1849 (SEQ ID NO:37), 1848 (SEQ ID NO:36), and 1857 (SEQ ID NO:45) on small intestinal mass was determined in male C57BL mice. Individual groups (n=6) of mice were given 5, 15, 45, 135 or 405 nmol/kg of each compound, s.c, twice daily for three consecutive days. For comparison purposes other groups of animals were given either equimolar doses of [Gly2]GLP-2 (SEQ ID NO:54) or vehicle (phosphate buffered saline, pH 7.4) in the same dosing regimen. Twenty-four hours after the last dose of compound had been given the mice were sacrificed and the small intestine (from the pylorus to the cecum emptied and weighed to determine the effect on small intestinal mass.

In data set [4] the test system is male C57BL mice. Kind of data set: Screening for intestinal growth effects (small intestine and colon mass relative to body weight, small intestine-colon sensitivity index). Type of data set: in vivo. The method, then:
The ability of the present compounds to stimulate intestinal growth was determined in male C57BL mice. Individual groups (n=6) of mice were given 30 nmol/kg of each compound, s.c, twice daily for ten consecutive days. For comparison purposes other groups of animals were given either an equimolar dose of [Gly2]GLP-2 (SEQ ID NO:54) or vehicle (phosphate buffered saline, pH 7.4) in the same dosing regimen. Twenty-four hours after the last dose of compound had been given the mice were sacrificed and the small intestine (from the pylorus to the cecum) and the colon (intestine distal to cecum) was emptied and weighed. To correct for slight difference in body weight (BW), the organ mass of the small intestine (SI) and colon were expressed relative to BW. The non-selective reference compound [Gly2]GLP-2 (SEQ ID NO:54) has been reported to stimulate gastrointestinal growth in both esophagus, stomach, small intestine and colon and to evaluate differences in growth pattern induced by compounds, the small intestine-colon sensitivity index of compound X was calculated as:
(SI/Colon)X/(SI/Colon)[Gly2]GLP-2%
Compounds with a small intestine-colon sensitivity greater than or equal to 1.05 were considered relatively selective for the small intestine (Table 15).
Compounds with a small intestine-colon sensitivity smaller than or equal to 0.95 were considered relatively selective for the colon (Table 15).

For data set [5], the system named is colonic neoplasms in mice. The conditions noted are these: cited from earlier work.

In the case of “H-[Gly2]hGLP-2-OH [Compound 1559, reference compound]”, the “Intact product found by LC-MS after H2O2 stress” value in data set [1] is given as “No product intact”. In data set [2] (RP-HPLC), the “Purity H2O2 0.5% 3 days” value was below 5% and the “Purity HCl 0.1M 12 days” value was determined as 57%. The “Purity NH4HCO3 0.1M 6 days” value in data set [2] (pH 8, RP-HPLC) is 66%. Moreover, the “Growth stimulation of small intestine, colon and stomach mass” value in the data set with male C57BL mice [3] was “produced dose-dependent growth stimulation in small intestine, colon and stomach”. Besides, the “Preferential growth of small intestine versus colon (small intestine-colon sensitivity)” value in the data set with male C57BL mice [4] (30 nmol/kg s.c. twice daily, ten days, relative to [Gly2]GLP-2) is “without preferential growth in small intestine or colon”. The “colon mass relative to body weight, % [Gly2]GLP-2” value in the data set with male C57BL mice [4] (male C57BL mice, 30 nmol/kg s.c. twice daily for ten days) came to 100 % [Gly2]GLP-2. In addition, in the data set with male C57BL mice [4] (male C57BL mice, 30 nmol/kg s.c. twice daily for ten days, third value column), the “small intestine-colon sensitivity index, (SI/Colon)X/(SI/Colon)[Gly2]GLP-2 %” value amounted to 100 % [Gly2]GLP-2. In data set [5], the “Growth of colonic neoplasms” value was “accelerate the growth of colonic neoplasms in mice”.
